Biological target: recombinant Impβ (human, UniProt Q14974 1-876)
Experiment: pull-down

Chain of recombinant Impβ (Q14974 whole entry): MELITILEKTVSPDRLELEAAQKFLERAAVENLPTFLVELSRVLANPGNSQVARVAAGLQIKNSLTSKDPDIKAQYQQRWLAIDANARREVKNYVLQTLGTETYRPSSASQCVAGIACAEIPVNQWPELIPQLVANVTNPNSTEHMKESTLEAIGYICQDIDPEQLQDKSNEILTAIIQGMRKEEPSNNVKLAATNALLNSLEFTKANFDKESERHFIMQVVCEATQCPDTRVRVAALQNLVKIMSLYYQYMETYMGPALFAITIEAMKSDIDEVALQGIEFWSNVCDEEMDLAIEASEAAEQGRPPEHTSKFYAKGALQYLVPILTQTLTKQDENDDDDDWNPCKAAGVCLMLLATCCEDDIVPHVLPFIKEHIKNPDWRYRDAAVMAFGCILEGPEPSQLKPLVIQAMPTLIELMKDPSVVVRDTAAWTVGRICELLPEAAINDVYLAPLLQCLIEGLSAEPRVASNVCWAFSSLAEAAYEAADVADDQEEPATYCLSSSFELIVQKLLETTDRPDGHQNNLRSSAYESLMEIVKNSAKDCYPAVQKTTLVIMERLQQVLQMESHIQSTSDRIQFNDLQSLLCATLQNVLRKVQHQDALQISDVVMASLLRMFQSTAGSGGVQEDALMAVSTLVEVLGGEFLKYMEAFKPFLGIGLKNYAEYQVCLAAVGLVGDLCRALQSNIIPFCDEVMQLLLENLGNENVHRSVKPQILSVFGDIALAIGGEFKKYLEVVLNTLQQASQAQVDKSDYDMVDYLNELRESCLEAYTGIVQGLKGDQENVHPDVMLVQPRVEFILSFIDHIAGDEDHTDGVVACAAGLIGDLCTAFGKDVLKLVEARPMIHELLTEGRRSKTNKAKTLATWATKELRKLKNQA

binding result: binds
B1: IBB peptide (peptide)
peptide: not shown

Source: PMC2964165 (The EMBO Journal, 2010)
